Results on two molecules are retold here after article doi:10.1101/2024.04.16.588673 (bioRxiv, 2024).

The target of the assay is T1, parathyroid hormone 1 receptor (PTH1R), C-tagged Citrine (human, UniProt Q03431 27-593).
T1 sequence: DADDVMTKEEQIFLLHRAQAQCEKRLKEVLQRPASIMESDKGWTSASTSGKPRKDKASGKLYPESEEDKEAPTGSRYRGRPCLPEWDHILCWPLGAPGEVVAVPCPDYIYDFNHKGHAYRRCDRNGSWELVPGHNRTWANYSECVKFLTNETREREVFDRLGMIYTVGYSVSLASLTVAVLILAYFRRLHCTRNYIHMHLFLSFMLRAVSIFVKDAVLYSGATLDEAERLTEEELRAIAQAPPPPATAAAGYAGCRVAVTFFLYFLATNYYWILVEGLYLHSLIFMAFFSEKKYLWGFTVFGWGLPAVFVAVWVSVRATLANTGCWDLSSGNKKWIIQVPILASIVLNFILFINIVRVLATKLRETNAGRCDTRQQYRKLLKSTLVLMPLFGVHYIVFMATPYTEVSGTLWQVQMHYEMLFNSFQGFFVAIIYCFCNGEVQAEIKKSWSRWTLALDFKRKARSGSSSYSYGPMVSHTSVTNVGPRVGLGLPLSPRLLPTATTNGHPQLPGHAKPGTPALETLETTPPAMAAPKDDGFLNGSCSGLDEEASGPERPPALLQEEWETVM
As to the kind of experiment: FRET or BRET.

B1: receptor activity-modifying protein 2 (RAMP2), C-tagged Cerulean (natural protein)
chain: QPLPTTGTPGSEGGTVKNYETAVQFCWNHYKDQMDPIEKDWCDWAMISRPYSTLRDCLEHFAELFDLGFPNPLAERIIFETHQIHFANCSLVQPTFSDPPEDVLLAMIIAPICLIPFLITLVVWRSKDSEAQA
For B1, the “stoichiometry N” value was approximately 1 RAMP2 per PTH1R.

B2: receptor activity-modifying protein 3 (RAMP3), C-tagged Cerulean (natural protein)
chain: RAGGCNETGMLERLPLCGKAFADMMGKVDVWKWCNLSEFIVYYESFTNCTEMEANVVGCYWPNPLAQGFITGIHRQFFSNCTVDRVHLEDPPDEVLIPLIVIPVVLTVAMAGLVVWRSKRTDTLL
For the molecule B2, the “stoichiometry N” value was approximately 2 RAMP3 per PTH1R.
